From patent US20140044730A1 (Regeneron, published 2014)
Read-outs that look alike come from different tables or passages of the source.

B1: VK-L30H (antibody, V domains shown)
VH: EMQLVESGGGLVQPGGSLRLSCAASGFTFSSHWMKWVRQAPGKGLEWVANINQDGSEKYYVDSVKGRFTISRDNAKNSLFLQMNSLRAEDTAVYYCARDIVLMVYDMDYYYYGMDVWGQGTTVTVSS
VL: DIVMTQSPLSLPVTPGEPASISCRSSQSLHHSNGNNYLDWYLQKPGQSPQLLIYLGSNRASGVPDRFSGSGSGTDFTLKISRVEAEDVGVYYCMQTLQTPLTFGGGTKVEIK
notes: His variant of 300N
B2: 316P(v1) (antibody, IgG1, V domains shown)
VH: EVQLVESGGGLVQPGGSLRLSCAASGFTFNNYAMNWVRQAPGKGLDWVSTISGSGGTTNYADSVKGRFIISRDSSKHTLYLQMNSLRAEDTAVYYCAKDSNWGNFDLWGRGTLVTVSS
VL: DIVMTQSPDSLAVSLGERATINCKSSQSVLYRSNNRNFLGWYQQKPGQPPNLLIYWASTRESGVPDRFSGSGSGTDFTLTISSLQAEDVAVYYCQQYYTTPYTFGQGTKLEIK
notes: also called 316(v1)
B3: 300N(v2) (antibody, IgG4, V domains shown)
VH: B1 VH
VL: not shown

Columns and labels:
[1] = biological target: T1, human PCSK9 with a C-terminal myc-myc-hexahistidine tag (human, UniProt Q8NBP7 31-692, limits assumed); test: SPR 25C, mAb captured;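 further: biacore CM4 surface bearing anti-human Fc antibody capturing the mAbs, PCSK9 binding and release rates fitted with a one-to-one model, KD and half-life derived from those rates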
T1 construct: also called hPCSK9-mmH; hPCSK9-mmh; not shown: C-terminal myc-myc-hexahistidine tag

[2] = biological target: T2, human PCSK9 with a C-terminal myc-myc hexahistidine tag and a D374Y mutation (human, UniProt Q8NBP7 31-692, limits assumed); test: cell-based or functional assay
[3] = biological target: T3, recombinant cynomolgus monkey PCSK9 with a C-terminal myc-myc hexahistidine tag (cynomolgus monkey, UniProt A8T662 31-692 (Macaca nemestrina entry), limits assumed); test: cell-based or functional assay
[4] = biological target: T1, human PCSK9 with a C-terminal …; test: cell-based or functional assay
[5] = biological target: T1, human PCSK9 with a C-terminal …; test: cell-based or functional assay; remark: listed apart in the source
[6] = biological target: T2, human PCSK9 with a C-terminal myc-myc …; test: cell-based or functional assay; remark: listed apart in the source
[7] = biological target: T3, recombinant cynomolgus monkey PCSK9 …; test: cell-based or functional assay; remark: listed apart in the source
[8] = biological target: T1, human PCSK9 with a C-terminal …; test: SPR 25C pH 7.2, mAb captured;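 further: biacore SPR, antibodies captured on anti-human Fc CM4 chip with PCSK9 flowed as analyte, rate constants from a one-to-one kinetic fit, KD and half-life derived from them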
[9] = biological target: T1, human PCSK9 with a C-terminal …; test: SPR 25C pH 5.75, mAb captured;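 further: biacore surface with anti-human Fc antibody capturing the antibodies, PCSK9 as analyte, one-to-one kinetic fit, KD as kd over ka, half-life derived from kd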
Method: (§1) A Biacore CM4 sensor chip was derivatized with a monoclonal mouse anti-human Fc antibody to capture human antibodies. The histidine substitution variant anti-PCSK9 antibodies were captured onto the anti-human Fc sensor surface from culture medium after transient expression in Chinese hamster ovary (CHO) cells. […] Kinetic association (kₐ) and dissociation (kd) rate constants were determined by processing and fitting the data to a 1:1 binding model using Scrubber 2.0 curve fitting software. Binding dissociation equilibrium constants (KD) and dissociative half-lives (t_{1/2}) were calculated from the kinetic rate constants as: KD (M)=kd/kₐ; and t_{1/2} (min)=(In2/(60*kd).

[10] = biological target: T1, human PCSK9 with a C-terminal …; test: SPR 25C, purified mAb captured
[11] = biological target: T1, human PCSK9 with a C-terminal …; test: SPR 25C pH 7.4, purified mAb captured
Method: as §1
All measurements were taken at 25° C.

[12] = biological target: T1, human PCSK9 with a C-terminal …; test: SPR 25C pH 6.0, purified mAb captured
Method: as §1
Also included in these experiments were several control/comparator antibodies. All measurements were taken at 25° C.

[13] = biological target: T1, human PCSK9 with a C-terminal …; test: blocking ELISA, hPCSK9-mmH vs coated hLDLR EGFA-hFc
Method: (§2) Briefly, hLDLR EGFA-hFc was coated at 2 μg/mL in PBS on a 96-well microtiter plate overnight at 4° C. followed by blocking with a solution of 0.5% (w/v) BSA in PBS.
(§3) The equilibrated sample solutions were then transferred to a LDLR EGFA-hFc coated plate.

[14] = biological target: T1, human PCSK9 with a C-terminal …; test: blocking ELISA pH 7.2, 500 pM hPCSK9-mmH vs coated hLDLR EGFA-hFc
Method: as §2, §3

[15] = biological target: T1, human PCSK9 with a C-terminal …; test: blocking ELISA pH 5.75, 500 pM hPCSK9-mmH vs coated hLDLR EGFA-hFc
Method: as §2, §3

[16] = biological target: T1, human PCSK9 with a C-terminal …; test: blocking ELISA pH 7.2, 500 pM hPCSK9-mmH vs coated hLDLR EGFA-hFc, exp #1
From the text: (§4) The equilibrated sample solutions were then transferred to the LDLR EGFA-hFc coated plate prepared as described above.

[17] = biological target: T1, human PCSK9 with a C-terminal …; test: blocking ELISA pH 7.2, 500 pM hPCSK9-mmH vs coated hLDLR EGFA-hFc, exp #2
From the text: as §4

[18] = biological target: T1, human PCSK9 with a C-terminal …; test: SPR (Biacore), 37 °C; antibody captured on anti-human Fc surface, hPCSK9-mmH injected (3.125-50 nM); association at pH 7.4, dissociation at pH 6.0
Method: (§5) All experiments were carried out at 37° C.
(§6) A Biacore CM4 sensor chip was derivatized with a Fab′2 polyclonal anti-human Fc antibody to capture human antibodies. […] Dissociation (kd) rate constants were determined by processing and fitting the data using Scrubber version 2.0 curve fitting software. Dissociative half-lives (t_{1/2}) were calculated from the dissociation rate constants as: t_{1/2} (min)=(In2/kd)/60.

[19] = biological target: T1, human PCSK9 with a C-terminal …; test: SPR (Biacore), 37 °C; antibody captured on anti-human Fc surface, hPCSK9-mmH injected (3.125-50 nM); association at pH 7.4, dissociation at pH 7.2
Method: as §6

[20] = biological target: T1, human PCSK9 with a C-terminal …; test: SPR (Biacore), 37 °C; antibody captured on anti-human Fc surface, hPCSK9-mmH injected (3.125-50 nM); association at pH 7.4, dissociation at pH 7.4
Method: as §5, §6

[21] = biological target: T1, human PCSK9 with a C-terminal …; test: SPR (Biacore), 37 °C; antibody captured on anti-human Fc surface, hPCSK9-mmH injected (3.125-50 nM); association at pH 7.4, dissociation at pH 5.75
Method: as §5, §6

[22] = biological target: T1, human PCSK9 with a C-terminal …; test: blocking ELISA pH 7.2; actual obtained value, below theoretical bottom of the assay
Method: as §2, §3

[23] = biological target: T1, human PCSK9 with a C-terminal …; test: blocking ELISA pH 5.75; actual obtained value, below theoretical bottom of the assay
Method: as §2, §3

[24] = biological target: T1, human PCSK9 with a C-terminal …; test: SPR (Biacore), 37 °C; antibody captured on anti-human Fc surface, hPCSK9-mmH injected (3.125-50 nM); association at pH 7.4, dissociation at pH 6.0; remark: listed apart in the source
Method: as §6

[25] = biological target: T1, human PCSK9 with a C-terminal …; test: SPR (Biacore), 37 °C; antibody captured on anti-human Fc surface, hPCSK9-mmH injected (3.125-50 nM); association at pH 7.4, dissociation at pH 7.2; remark: listed apart in the source
Method: as §6

[26] = biological target: T1, human PCSK9 with a C-terminal …; test: SPR (Biacore), 37 °C; antibody captured on anti-human Fc surface, hPCSK9-mmH injected (3.125-50 nM); association at pH 7.4, dissociation at pH 7.4; remark: listed apart in the source
Method: as §6

[27] = biological target: T1, human PCSK9 with a C-terminal …; test: SPR (Biacore), 37 °C; antibody captured on anti-human Fc surface, hPCSK9-mmH injected (3.125-50 nM); association at pH 7.4, dissociation at pH 5.75; remark: listed apart in the source
Method: as §6

Binder | IC50, LDL uptake in HepG2 cells, 100 nM hPCSK9-mmH [4] [nM] | IC50, LDL uptake in HepG2 cells, 50 nM hPCSK9-mmH [5] [nM] | IC50, LDL uptake in HepG2 cells, 2 nM hPCSK9-D374Y-mmH [6] [nM] | IC50, LDL uptake in HepG2 cells, 50 nM MfPCSK9-mmH [7] [nM] | KD ratio pH 6.0/pH 7.4 [10] | ka ratio pH 6.0/pH 7.4 [10] | kd ratio pH 6.0/pH 7.4 [10] | t½ ratio pH 6.0/pH 7.4 [10] | Kd [11] [nM] | koff [11] [s⁻¹] | kon [11] [M⁻¹ s⁻¹] | t½ [11] [min] | Kd [12] [nM] | koff [12] [s⁻¹] | kon [12] [M⁻¹ s⁻¹] | t½ [12] [min] | IC50 ratio (pH 5.75/pH 7.2) [13] | IC50 [14] [nM] | IC50 [15] [nM] | t½ (dissociative half-life) [24] [min] | also measured
B1 | 37 | 9 | 3.3 | 26.4 | 14.8 | 1.94 | 28.8 | 0.03 | 1.82 | 0.000293 | 161000 | 39.4 | 27 | 0.00845 | 313000 | 1.4 | 208 | 0.209 | 43.4 |  | KD ratio pH 5.75/pH 7.2 [1]: 25.5; t½ ratio pH 5.75/pH 7.2 [1]: 0.01; IC50, LDL uptake in HepG2 cells, 2 nM hPCSK9-D374Y-mmH [2]: 2.1 nM; IC50, LDL uptake in HepG2 cells, 50 nM MfPCSK9-mmH [3]: 19.9 nM; Kd [8]: 2.27 nM; t½ [8]: 16 min; Kd [9]: 57.8 nM; t½ [9]: 0.2 min; IC50 [16]: 0.166 nM; IC50 [17]: 0.198 nM; t½ (dissociative half-life) [18]: 0.4 min; t½ (dissociative half-life) [19]: 11.2 min; t½ (dissociative half-life) [20]: 10.6 min; t½ (dissociative half-life) [21]: 0.2 min
B2 | 31 | 7.8 | 2 | 10.3 | 0.41 | 1.3 | 0.53 | 1.89 | 0.616 | 0.000308 | 499000 | 37.6 | 0.25 | 0.000162 | 649000 | 71.1 | 1.8 | < 0.125 | < 0.125 | 13 | IC50 [22]: 0.064 nM; IC50 [23]: 0.113 nM; t½ (dissociative half-life) [25]: 13.8 min; t½ (dissociative half-life) [26]: 7 min; t½ (dissociative half-life) [27]: 27.8 min
B3 | 32 | 10.3 | 2 | 15.7 | 2.09 | 1.89 | 3.94 | 0.25 | 0.546 | 7.93e-05 | 145000 | 146 | 1.14 | 0.000313 | 274000 | 36.9 | 1.2 | 0.221 | 0.268 | 7.1 | t½ (dissociative half-life) [25]: 46.2 min; t½ (dissociative half-life) [26]: 34.6 min; t½ (dissociative half-life) [27]: 7 min
